According to US20040259770A1, “Method for determining leukocyte activation” (Rush University Medical Center, priority 2003, published 2004):
Like-named read-outs stand apart in the source and are kept apart here.

Columns and labels:
[1] = molecular target: lactoferrin receptors on eosinophils; assay: Binding of 125I-labeled lactoferrin by eosinophils, Scatchard analysis; set-up: species or system human; conditions: three experiments, 2 hours at room temperature
Procedure: Lactoferrin (100 micrograms) was radioiodinated using IODO-GEN iodination reagent (Pierce; Rockford, Ill.) according to the procedure supplied by the manufacturer. The lactoferrin was incubated with 400 micro Curies Na^125I (PerkinElmer Life Sciences; Boston, Mass.) for 3 min, and the ^125I-labeled lactoferrin was separated from free Na^125I by chromatography through a 5-ml D-Salt dextran desalting column (Pierce) using PBS as the elution buffer. Protein concentration of the ^125I-labeled lactoferrin was measured by the BCA assay (Pierce). Specific activity of the ^125I-labeled lactoferrin was 34,800 cpm/pmole. […] Binding of ^125I-labeled lactoferrin by eosinophils was determined using a modification of previously described protocols for eosinophils. Motegi et al. J. Immunol. 161:4340 (1998); Lopez et al., J. Biol. Chem. 266:24741 (1991). Eosinophils (2×10^6) were incubated with the indicated concentrations of ^125I-labeled lactoferrin alone and in the presence of excess unlabeled lactoferrin in RPMI 1640 containing 20 mM HEPES, 0.5% BSA, and 0.1% sodium azide (Lopez et al., J. Biol. Chem. 266:24741 (1991)) in siliconized glass tubes for 2 hr at room temperature on a circular oscillating platform. In some experiments as indicated, binding was measured in the presence of excess unlabeled transferrin. Total reaction volume was 0.15 ml. Reactions were stopped by centrifugation (1300 g for 4 min) of the reaction mixture through 200 microliters FCS in a 1.5 ml microcentrifuge tube. The supernatant was removed by careful aspiration, and after quick-freezing on dry ice the tip of the tube containing the cell pellet was excised and the radioactivity was measured by gamma counting (Beckman Coulter Gamma 5500B). Specific binding was determined as the difference between total binding and binding in the presence of the excess unlabeled lactoferrin. Binding constants were determined by Scatchard analysis (Scatchard, G., Ann. N.Y. Acad. Sci. 51:660 (1949)).

eosinophils = assay: Eosinophil superoxide production (cytochrome c reduction) in protein-coated tissue culture wells; format: cell-based, human; conditions: 1 to 100 micrograms per milliliter of the protein, 2 hours at 37° C
Procedure: Neutrophils were isolated from venous blood of healthy adult volunteers by density gradient centrifugation through lymphocyte separation medium (BioWhittaker; Walkersville, Md.) as described previously (Haskell M. D., et al., Blood 86:4627-4637 (1995)) with one modification. Isotonicity was restored following the brief hypotonic lysis steps by the addition of 2× concentrated Hank's Balanced Salt Solution (HBSS) (Gibco; Grand Island, N.Y.) (without Ca^2+ and Mg^2+) containing 5 mM HEPES, pH 7.4. The cells were suspended in HEPES (10 mM)-buffered HBSS (with Ca^2+ and Mg^2+), pH 7.4, containing 1 milligram per milliliter of human serum albumin (HSA) (Sigma Chemical Co.) (HEPES-HBSS-HSA buffer). Neutrophil purity was routinely greater than 95 percent, with eosinophils representing the remainder of the cells. Eosinophils were isolated from the neutrophil preparations by negative selection (Hansel T. T., et al., J. Immunol. Meth. 145:105-10 (1991)) using anti-CD16 immunomagnetic beads as described by the manufacturer (Miltenyi Biotec, Inc., Auburn, Calif.). The eosinophils were suspended in HEPES-HBSS-HSA buffer. Eosinophil purity was routinely greater than 95 percent as determined by counting Wright-stained cytospin preparations. In some assays, an aliquot of the neutrophil preparation was held on ice for later use.
Superoxide production was measured essentially as described elsewhere (Motegi, Y., and H. Kita, J. Immunol. 161:4340 (1998)). Briefly, wells in a 96-well (flat bottom) tissue culture plate (Corning, Inc.; Corning, N.Y.) were coated with human milk lactoferrin (Sigma Chemical Co.) or human secretory IgA (ICN Biomedical; Aurora, Ohio) by incubation with 50 microliters of the indicated concentrations of the proteins in phosphate buffered saline (PBS) overnight at 4° C. Non-specific protein binding sites were blocked by subsequent incubation with 100 microliters of 25 milligrams per milliliter of HSA in PBS for 2 hours at 37° C., and the tissue culture wells were washed twice with PBS before use. Aliquots (5×10^4 cells) of eosinophils or neutrophils were added to the wells and were incubated in HEPES-HBSS—HSA buffer containing 50 micromolar cytochrome c (Sigma Chemical Co.) for 120 minutes at 37° C. in a Ceres UV900HDi microplate reader (Bio-Tek Instruments, Inc., Winooski, Vt.). Total incubation volume was 0.2 milliliters. Absorbance at 550 nanometers was recorded at 15-minute intervals, and superoxide production was calculated as described previously (Motegi, Y., and H. Kita, J. Immunol. 161:4340 (1998)). Results are expressed as nanomoles superoxide per 10^5 cells after subtraction of spontaneous production, which was measured in tissue culture wells coated only with HSA. GM-CSF (R & D Systems; Minneapolis, Minn.), porcine heparin (Sigma Chemical Co.), or chondroitin sulfate C (Sigma Chemical Co.) was added to the incubation mixtures in some assays as indicated.

| Kd ([1]; mean+/−SE, listed as 125I-lactoferrin, read-out: KD, first class of receptors) [nM] | Kd ([1]; mean+/−SE, read-out: KD, first class of receptors) [nM] | Kd ([1]; read-out: KD, second class of receptors) [nM] | Molecule | stimulation of eosinophil superoxide production (in words) (eosinophils) |
| --- | --- | --- | --- | --- |
| ~47 | 47 | ~260 | ^125I-labeled lactoferrin: lactoferrin radioiodinated with IODO-GEN reagent, 34,800 cpm/pmole (protein, UniProt P02788 20-710, looked up, 125I label, lactoferrin radioiodinated with IODO-GEN reagent, 34,800 cpm/pmole) Lactotransferrin: GRRRSVQWCAVSQPEATKCFQWQRNMRKVRGPPVSCIKRDSPIQCIQAIAENRADAVTLDGGFIYEAGLAPYKLRPVAAEVYGTERQPRTHYYAVAVVKKGGSFQLNELQGLKSCHTGLRRTAGWNVPIGTLRPFLNWTGPPEPIEAAVARFFSASCVPGADKGQFPNLCRLCAGTGENKCAFSSQEPYFSYSGAFKCLRDGAGDVAFIRESTVFEDLSDEAERDEYELLCPDNTRKPVDKFKDCHLARVPSHAVVARSVNGKEDAIWNLLRQAQEKFGKDKSPKFQLFGSPSGQKDLLFKDSAIGFSRVPPRIDSGLYLGSGYFTAIQNLRKSEEEVAARRARVVWCAVGEQELRKCNQWSGLSEGSVTCSSASTTEDCIALVLKGEADAMSLDGGYVYTAGKCGLVPVLAENYKSQQSSDPDPNCVDRPVEGYLAVAVVRRSDTSLTWNSVKGKKSCHTAVDRTAGWNIPMGLLFNQTGSCKFDEYFSQSCAPGSDPRSNLCALCIGDEQGENKCVPNSNERYYGYTGAFRCLAENAGDVAFVKDVTVLQNTDGNNNEAWAKDLKLADFALLCLDGKRKPVTEARSCHLAMAPNHAVVSRMDKVERLKQVLLHQQAKFGRNGSDCPDKFCLFQSETKNLLFNDNTECLARLHGKTTYEKYLGPQYVAGITNLKKCSTSPLLEACEFLRK | retained full ability to stimulate eosinophil superoxide production |
| – | – | – | mock-deglycosylated lactoferrin: lactoferrin given the same treatment as deglycosylated lactoferrin but in the absence of PNGase F (protein, UniProt P02788 20-710, looked up, mock-deglycosylated) Lactotransferrin: GRRRSVQWCAVSQPEATKCFQWQRNMRKVRGPPVSCIKRDSPIQCIQAIAENRADAVTLDGGFIYEAGLAPYKLRPVAAEVYGTERQPRTHYYAVAVVKKGGSFQLNELQGLKSCHTGLRRTAGWNVPIGTLRPFLNWTGPPEPIEAAVARFFSASCVPGADKGQFPNLCRLCAGTGENKCAFSSQEPYFSYSGAFKCLRDGAGDVAFIRESTVFEDLSDEAERDEYELLCPDNTRKPVDKFKDCHLARVPSHAVVARSVNGKEDAIWNLLRQAQEKFGKDKSPKFQLFGSPSGQKDLLFKDSAIGFSRVPPRIDSGLYLGSGYFTAIQNLRKSEEEVAARRARVVWCAVGEQELRKCNQWSGLSEGSVTCSSASTTEDCIALVLKGEADAMSLDGGYVYTAGKCGLVPVLAENYKSQQSSDPDPNCVDRPVEGYLAVAVVRRSDTSLTWNSVKGKKSCHTAVDRTAGWNIPMGLLFNQTGSCKFDEYFSQSCAPGSDPRSNLCALCIGDEQGENKCVPNSNERYYGYTGAFRCLAENAGDVAFVKDVTVLQNTDGNNNEAWAKDLKLADFALLCLDGKRKPVTEARSCHLAMAPNHAVVSRMDKVERLKQVLLHQQAKFGRNGSDCPDKFCLFQSETKNLLFNDNTECLARLHGKTTYEKYLGPQYVAGITNLKKCSTSPLLEACEFLRK | did not differ from that of control lactoferrin |
| – | – | – | soluble lactoferrin: human milk lactoferrin added in solution to HSA-coated wells (protein, UniProt P02788 20-710, looked up) Lactotransferrin: GRRRSVQWCAVSQPEATKCFQWQRNMRKVRGPPVSCIKRDSPIQCIQAIAENRADAVTLDGGFIYEAGLAPYKLRPVAAEVYGTERQPRTHYYAVAVVKKGGSFQLNELQGLKSCHTGLRRTAGWNVPIGTLRPFLNWTGPPEPIEAAVARFFSASCVPGADKGQFPNLCRLCAGTGENKCAFSSQEPYFSYSGAFKCLRDGAGDVAFIRESTVFEDLSDEAERDEYELLCPDNTRKPVDKFKDCHLARVPSHAVVARSVNGKEDAIWNLLRQAQEKFGKDKSPKFQLFGSPSGQKDLLFKDSAIGFSRVPPRIDSGLYLGSGYFTAIQNLRKSEEEVAARRARVVWCAVGEQELRKCNQWSGLSEGSVTCSSASTTEDCIALVLKGEADAMSLDGGYVYTAGKCGLVPVLAENYKSQQSSDPDPNCVDRPVEGYLAVAVVRRSDTSLTWNSVKGKKSCHTAVDRTAGWNIPMGLLFNQTGSCKFDEYFSQSCAPGSDPRSNLCALCIGDEQGENKCVPNSNERYYGYTGAFRCLAENAGDVAFVKDVTVLQNTDGNNNEAWAKDLKLADFALLCLDGKRKPVTEARSCHLAMAPNHAVVSRMDKVERLKQVLLHQQAKFGRNGSDCPDKFCLFQSETKNLLFNDNTECLARLHGKTTYEKYLGPQYVAGITNLKKCSTSPLLEACEFLRK | stimulated minimal superoxide production |
| – | – | – | immobilized deglycosylated lactoferrin: lactoferrin incubated with peptide N-glycosidase F for 72 hours at 37° C (protein, UniProt P02788 20-710, looked up, deglycosylated with PNGase F, lactoferrin incubated with peptide N-glycosidase F for 72 hours at 37° C) Lactotransferrin: GRRRSVQWCAVSQPEATKCFQWQRNMRKVRGPPVSCIKRDSPIQCIQAIAENRADAVTLDGGFIYEAGLAPYKLRPVAAEVYGTERQPRTHYYAVAVVKKGGSFQLNELQGLKSCHTGLRRTAGWNVPIGTLRPFLNWTGPPEPIEAAVARFFSASCVPGADKGQFPNLCRLCAGTGENKCAFSSQEPYFSYSGAFKCLRDGAGDVAFIRESTVFEDLSDEAERDEYELLCPDNTRKPVDKFKDCHLARVPSHAVVARSVNGKEDAIWNLLRQAQEKFGKDKSPKFQLFGSPSGQKDLLFKDSAIGFSRVPPRIDSGLYLGSGYFTAIQNLRKSEEEVAARRARVVWCAVGEQELRKCNQWSGLSEGSVTCSSASTTEDCIALVLKGEADAMSLDGGYVYTAGKCGLVPVLAENYKSQQSSDPDPNCVDRPVEGYLAVAVVRRSDTSLTWNSVKGKKSCHTAVDRTAGWNIPMGLLFNQTGSCKFDEYFSQSCAPGSDPRSNLCALCIGDEQGENKCVPNSNERYYGYTGAFRCLAENAGDVAFVKDVTVLQNTDGNNNEAWAKDLKLADFALLCLDGKRKPVTEARSCHLAMAPNHAVVSRMDKVERLKQVLLHQQAKFGRNGSDCPDKFCLFQSETKNLLFNDNTECLARLHGKTTYEKYLGPQYVAGITNLKKCSTSPLLEACEFLRK | stimulated superoxide production to the same extent and in the same concentration-dependent manner as immobilized mock-deglycosylated lactoferrin |
